Reference: US20250295796A1, “CELL PENETRATING POLYPEPTIDES (CPPS) AND THEIR USE IN HUMAN THERAPY” (RDP PHARMA AG, priority 2021, published 2025)

Experiments:
[1] = tested on: Human hepatocellular carcinoma cell lines; assay: Monolayer assay, human hepatocellular carcinoma cell lines, 96h treatment (geomean of three lines); format: cell-based
Description: (§1) Monolayer Assay Propidium Iodid (PI). Cells were harvested from exponential phase cultures, counted and depending on the cell line 3.000 to 20.000 cells were plated in 96-well flat-bottom microtiter plates After a 24 h recovery period to allow cells to resume exponential growth, 10 μl of culture medium (four control wells/plate) or culture medium with the test compound were added by a liquid handling robotic system and treatment continued for four days. Compounds were applied in half-log increments at 10 concentrations in duplicate. Three independent experiments were performed. Cells were then washed with 200 μl PBS to remove dead cells followed by addition of 200 μl of a solution containing 7 μg/ml propidium iodide (PI) and 0.1% (v/v) Triton X-100. After an incubation period of 1-2 h at room temperature, fluorescence (FU) was measured using the Cytofluor 4000 microplate reader (excitation λ=530 nm, emission λ=620 nm) to quantify the amount of attached viable cells. Concentrations required for 50% inhibition of cell growth (IC50) were calculated by non-linear regression (log[conc. of inhibitor]versus response (% T/C)) using the analysis software GraphPad Prism®, Prism 5 for windows, version 5.01 (GraphPad Software Inc., CA).
CROMOC36—in vitro activity Human hepatocellular carcinoma cell lines IC50 values of CROMOC36 and Sorafenib, 96h treatment. […] The individual results for CROMOC36 are included in FIG. 24. […] The individual results for Sorafenib are included in (FIG. 24).

[2] = tested on: human pancreatic tumor cell lines; assay: Propidium iodide based monolayer proliferation assay, panel of 13 human pancreatic tumor cell lines
Description: as §1
CROMOC36—in vitro activity Human pancreatic carcinoma cell lines. The aim of this study was to investigate the antitumor activity of CROMOC36 in vitro on a panel of 13 human pancreatic tumor cell lines. Antitumor activity was assessed after four days of CROMOC36 treatment using a propidium iodide based monolayer proliferation assay. Up to four experiments were performed in each cell line, testing CROMOC36 at ten concentrations in half-log increments up to 1 μM. Taxol, an antitumor agent commonly used for the treatment of pancreatic cancer, was used as a reference compound and tested in half-log steps up to 0.3 μM.

PATU8902 = assay: Propidium iodide monolayer assay, PATU8902; format: cell-based, human; details: PATU8902, four days
Description: as §1, with “Concentrations required for 50% inhibition of cell growth (IC50) were calculated by non-linear regression (log[conc. of inhibitor]versus response (% T/C)) using the analysis software GraphPad Prism®, Prism 5 for windows, version 5.01 (GraphPad Software Inc., CA).” left out
(§2) CROMOC36—in vitro activity Human pancreatic carcinoma cell lines. […] Antitumor activity was assessed after four days of CROMOC36 treatment using a propidium iodide based monolayer proliferation assay. […]

PATU8988T = assay: Propidium iodide monolayer assay, PATU8988T; format: cell-based, human; details: four days
Description: as §1, with “Concentrations required for 50% inhibition of cell growth (IC50) were calculated by non-linear regression (log[conc. of inhibitor]versus response (% T/C)) using the analysis software GraphPad Prism®, Prism 5 for windows, version 5.01 (GraphPad Software Inc., CA).” left out
as §2

MIAPACA2 = assay: Propidium iodide monolayer assay, MIAPACA2; format: cell-based, human; details: MIAPACA2, four days
Description: as §1, with “Concentrations required for 50% inhibition of cell growth (IC50) were calculated by non-linear regression (log[conc. of inhibitor]versus response (% T/C)) using the analysis software GraphPad Prism®, Prism 5 for windows, version 5.01 (GraphPad Software Inc., CA).” left out
as §2

PANC1 = assay: Propidium iodide monolayer assay, PANC1; format: cell-based, human; details: PANC1, four days
Description: as §1, with “Concentrations required for 50% inhibition of cell growth (IC50) were calculated by non-linear regression (log[conc. of inhibitor]versus response (% T/C)) using the analysis software GraphPad Prism®, Prism 5 for windows, version 5.01 (GraphPad Software Inc., CA).” left out
as §2

[3] = tested on: 80 different human tumor cell lines; assay: Monolayer SRB staining assay for 72 hours, 80 human tumor cell lines; format: cell-based; details: 55/80 cell lines, SRB 72 hours
Description: Cells were harvested from exponential phase cultures, and depending on the cell line 10.000 to 30.000 cells were plated in 96-well flat-bottom microtiter plates. After a 24 h recovery period to allow cells to resume exponential growth, supernatant was discarded and 100 μl of culture medium (eight control wells/plate) or culture medium with the test compound were added by a liquid handling robotic system (Microlab® Starlet, Hamilton) and treatment continued for 72 hrs. Compounds were applied at 9 concentrations eight wells/concentration). At least three independent experiments were performed. For SRB staining, cells were fixed with SRB01 for 1h at 4° C. (final concentration of TCA=10%) washed with a plate washer (Hydroflex, Tecan©) for five times with H2O; and stained with 100 μl of SRB02 at room temperature for 10 min following 4 washes in SRB03 and finally 100 μl of developer solution SRB04 for 5 minutes with shaking. Optical density was assessed using a plate-reader (Sunrise, Tecan©) at 540 nm. […]
To analyze the cytostatic activity in different tumor cell lines, the in vitro activity of CROMOC36 was analyzed in 80 different human tumor cell lines representing the mayor tumor indications by the Monolayer Sulphorhodamine B (SRB) staining assay for 72 hours.

primary hepatocytes = assay: SRB assay for 96 hours, primary hepatocytes; format: cell-based; details: non-tumor cells primary hepatocytes, SRB 96 hours
Description: Cells were harvested from exponential phase cultures, and depending on the cell line 10.000 to 30.000 cells were plated in 96-well flat-bottom microtiter plates. […] Compounds were applied at 9 concentrations eight wells/concentration). At least three independent experiments were performed. For SRB staining, cells were fixed with SRB01 for 1h at 4° C. (final concentration of TCA=10%) washed with a plate washer (Hydroflex, Tecan©) for five times with H2O; and stained with 100 μl of SRB02 at room temperature for 10 min following 4 washes in SRB03 and finally 100 μl of developer solution SRB04 for 5 minutes with shaking. Optical density was assessed using a plate-reader (Sunrise, Tecan©) at 540 nm. Concentrations required for 50% inhibition of cell growth (IC50) were calculated by non-linear regression (log[conc. of inhibitor] versus response (% T/C)) using the analysis software GraphPad Prism®, Prism 5 for windows, version 5.01 (GraphPad Software Inc., CA). (SRB Buffers FIG. 25).

[4] = tested on: DNA double strand breaks (Phospho-H2AX, Phospho-H3); assay: Immunohistochemistry of liver specimens after single IV treatment; format: in vivo, Male Sprague Dawley Rats; details: samples after 13-15 days
Description: FIG. 8: Immunohistochemistry (IHC) analysis paraffin embedded liver specimens of Male Sprague Dawley Rats after single IV treatment with CROMOC36. Samples were collected after 13-15 days and IHC was used to assess the Histone surrogate-markers for DNA double strand breaks Phospho-H2AX and Phospho-H3 for analyzing the persistence of DNA double stand breaks (DSBs) at very high CROMOC concentrations in tumors in comparison to the KI67marker.
As a proof of the nuclease activity in vivo an Immunohistochemistry (IHC) analysis of paraffin embedded liver specimens of Male Sprague Dawley Rats after single IV treatment with CROMOC36.

B1: CROMOC36: single chain PvuII endonuclease fused at its C-terminus to DDM36, PEGylated final product used in the Examples (protein)
chain: MSHPDLNKLLELWPHIQEYQDLALKHGINDIFQDNGGKLLQVLLITGLTVLPGREGNDAVDNAGQEYELKSINIDLTKGFSTHHHMNPVIIAKYRQVPWIFAIYRGIAIEAIYRLEPKDLEFYYDKWERKWYSDGHKDINNPKIPVKYVMEHGTKIYGSGGSGGSSHPDLNKLLELWPHIQEYQDLALKHGINDIFQDNGGKLLQVLLITGLTVLPGREGNDAVDNAGQEYELKSINIDLTKGFSTHHHMNPVIIAKYRQVPWIFAIYRGIAIEAIYRLEPKDLEFYYDKWERKWYSDGHKDINNPKIPVKYVMEHGTKIYGNSGSGKKKKKGKGSGLGSGKKKDPLGSGLGSGKKKKKGKGSGLGSGKKKDPLGST
modifications: PEGylated; peptide, CROMOC36
With B1 the “potency compared to Sorafenib” value ([1]; geomean IC50 of three HCC cell lines) was “over 300 fold”, the IC50 ([1]; three HCC cell lines, 96h treatment) was 14.1 nM and the IC50 ([2]; 13 pancreatic cell lines, four days treatment, read-out: geomean IC50) was 45.9 nM. For the same molecule, the antitumor activity ([2]; on five of the cell lines tested, up to 1 μM) was “no activity or only marginal activity”, the IC50 (PATU8902) was 2.33 nM and the IC50 (PATU8988T) was 2.79 nM. It also gave an IC50 (MIAPACA2) of roughly 10 nM, an IC50 (PANC1) of roughly 10 nM and an IC50 [3] of no more than 100 nM. The IC50 (primary hepatocytes) was greater than 10000 nM and the “DNA double strand breaks in liver (Phospho-H2AX, Phospho-H3 IHC)” value [4] was “DSBs are induced”.
